By Kd is commonly meant a measure of binding affinity in units of concentration. By koff is commonly meant a measure of how fast the partners let go of each other. For orientation: kon means the rate constant with which the complex forms.

Assay [1] has as its target T1, Peptide antigen CNIKHVPGGGSVQIVYKPVD (human, conjugated to BSA in the ELISA (to KLH via the N-terminal cysteine in the immunogen)).
T1 construct: also called original immunization peptide; immunizing Tau peptide
T1 peptide: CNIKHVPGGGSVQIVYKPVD
The assay can be described thus: ELISA screening of hybridoma clones. As to the method:
One month after the boost immunization, antisera were collected from the mice and antibody titers assessed by ELISA to measure immunoreactivity against the original immunizing Tau peptide and both 2N4R and 1N3R recombinant Tau proteins. Briefly, either 150 ng of Peptide antigen conjugated to BSA or 50 ng of 2N4R or 1N3R recombinant Tau protein (Enzo Life Sciences, cat. no's BML-SE321 and BML-SE323 respectively) were used to coat each well of a 96-well plate (Costar cat. no. 2797) in 10 mM phosphate buffer, pH 7.0 at 37° C. for 1 hour. Plates were blocked in a final concentration of 1% BSA diluted in PBS at room temperature for 30 minutes. […] Following additional wash steps, antibody binding was detected by addition of 3,3′,5,5′-Tetramethylbenzidine (TMB) substrate. The enzymatic reaction was stopped with an equal volume of 2M H₂SO₄ and the well optical density was determined using a platereader at wavelength 450 nm.
Once mice with a high antibody titer had been determined, cells were isolated from the medial iliac lymph nodes and fused using polyethylene glycol with mouse myeloma SP2 cells to generate hybridomas. […] To give an approximation of relative binding, culture supernatant that was positive in the peptide ELISA and either recombinant protein, 2N4R or 1N3R, or both, were then evaluated in a competitive ELISA system. […]
A general note: In an ELISA, binding on a coated surface is turned into a signal by an enzyme label.

Assay [2] has as its target T2, Human Tau 2N4R, wild type, recombinant full length (human, UniProt P10636 2-758).
T2 construct: Full length 2N4R isoform; monomer in SPR and ELISA; heparin-induced aggregates or seeds in the functional assays; also called Tau441; Tau-441
The experiment in a line: SPR BIAcore, mAb captured by anti-mouse IgG, Tau flowed, 1:1 Langmuir. As to the method: All experiments were performed using a BIAcore™ T-100 instrument (GE Healthcare). 10 μL anti-human IgG (monoclonal mouse anti-human Fc) from human antibody capture kit (GE Healthcare) was diluted to 25 μL/mL in 200 μL final immobilization buffer (10 mM sodium acetate, pH 5.0). The flow rate was set to 5 μL/min, flowpath 1. Fifty μL N-hydroxysuccinamide (NETS) and 50 μL 1-ethyl-3-(3-dimethylaminopropyl) carbidiimide (EDC) were mixed and injected for 420 sec to activate the CM5 chip surface. The diluted antibody was injected for 360 seconds followed by 1 M ethanolamine for 420 seconds. The flowpath was then switched to flowpath 2. A new EDC/NHS mixture was prepared and the procedure was repeated for flow cell 2. The surface was conditioned by 2 injections of 30 sec using flowpath 1, 2 at 30 μL/min of 3M MgCl₂. For the anti-mouse surface, 10 μL anti-mouse IgG (polyclonal rabbit anti-mouse IgG) from mouse antibody capture kit (GE Healthcare) was diluted to 30 μL/mL in 324 μL final immobilization buffer (10 mM sodium acetate, pH 5.0). The flow rate was set to 5 μL/min, flowpath 3. Fifty μL NHS and 50 μL EDC were mixed and injected for 420 sec to activate the chip surface. The diluted antibody was injected for 420 sec. 1 M ethanolamine was injected for 420 sec. Flow path was switched to flowpath 4. A new EDC/NHS mixture was prepared and the procedure was repeated for flow cell 4. The surface was conditioned by 2 injections of 30 sec using flowpath 3, 4 at 30 μL/min of 10 mM glycine, pH 1.7.
Binding of humanized and mouse antibodies were analyzed by BIAcore™ to determine their relative association rates (ka), dissociation rates (kd), and equilibrium binding constants (KD). Anti-mouse or anti-human antibodies were immobilized on a CM5 chip and sample mAbs were captured on the chip. 2N4R Tau was flowed over the chip and binding observed. The binding constants kₐ, kd, and KD were determined using a 1:1 Langmuir fitting model. Both 7G6-HCzu12-based mAbs had similar kₐ and kd values (Table 8). However, the kₐ of 7G6-HCzu11 was decreased, though the kd was unaffected. Therefore, human residues in the Vh3 framework impact binding to Tau.
For orientation: Surface plasmon resonance follows binding to a sensor surface in real time, without labels.

For assay [3], the target named is T3, HVPGG site of Tau (15-mer array peptides containing HVPGG) (human).
T3 peptide: HVPGG
The experiment in a line: peptide microarray; HVPGG site of the second repeat region against HQPGG (repeat region 1). As to the method:
The diluted antibody was incubated on the chip for 16 hours at 4° C. with shaking at 140 rpm. Primary antibody was removed and the chip was washed in PBS (pH 7.4)/0.05% Tween 20. Wash buffer was removed and goat anti-mouse IgG (H+L) DyLight™680 (1:5000) and an anti-HA tag DyLight™ 800 (1:2000) in the same buffer as the primary antibody was then incubated for 45 minutes at room temperature on the chip. Detection antibody was removed and the chip was washed once again as previously. Fluorescence images were acquired on the LI-COR Odyssey™ Imaging System and the microarray data was finally analyzed using the PepSlide™ Analyser software.

T2 sequence (P10636 other isoform, or with tags, fused parts or gaps limits assumed): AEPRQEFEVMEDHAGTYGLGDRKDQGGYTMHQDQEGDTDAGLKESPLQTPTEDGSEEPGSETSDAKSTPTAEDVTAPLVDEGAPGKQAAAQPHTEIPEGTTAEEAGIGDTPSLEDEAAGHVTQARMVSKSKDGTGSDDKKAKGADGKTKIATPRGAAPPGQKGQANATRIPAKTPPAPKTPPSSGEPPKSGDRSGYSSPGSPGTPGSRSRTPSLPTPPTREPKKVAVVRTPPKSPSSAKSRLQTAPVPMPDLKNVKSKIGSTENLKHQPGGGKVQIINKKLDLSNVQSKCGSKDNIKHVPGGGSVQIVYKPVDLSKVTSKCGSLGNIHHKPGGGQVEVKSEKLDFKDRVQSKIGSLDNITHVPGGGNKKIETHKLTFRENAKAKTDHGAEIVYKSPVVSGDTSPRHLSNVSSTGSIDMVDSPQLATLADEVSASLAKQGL

B1: murine 7G6 antibody (antibody, mouse IgG2b, V domains shown)
VH: QVQLLQPGAELVKPGASVIMSCKASGYTFTTYWITWVKQRPGQGLEWIGDIYPGSSICNYNEKFKSKATLTVDTSSSTAYMQLNSLTSEDSAVYYCAREDGYDAWFAYWGQGTLVTVSA
VL: DVLMTQTPLSLPVSLGDQASISCRSSQSILHSNGNTYLEWYLQKPGQSPKLLICKVSNRFSGVPDRFSGSGSGTDFTLKISRVEAEDLGVYYCFQGSHVPFTFGSGTKLEIK
notes: Mouse IgG2b, kappa, purified from hybridoma; also called ms7G6; mouse 7G6
In the case of B1, the binding result in assay [1] was “binds”. Besides, in assay [2], the Kd amounted to 3.31 nM, the koff stood at 0.00153 s⁻¹ and the kon was 464000 M⁻¹ s⁻¹. In addition, the “fold preference in binding (average signal intensities)” value in assay [3] is 41 fold.

Values taken from patent publication US20190112365A1 (EISAI R AND D MANAGEMENT, published 2019).
